The supplement of paper PMC12764529
± gives the half width of the 95% confidence interval.

Legend:
[1] = folding stability dG unfold (combined trypsin and chymotrypsin); higher = more stable
Outline: (§1)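 Designed mini-proteins with no cysteine and under 80 residues were kept only if AlphaFold2 dimer inter-PAE was above 15. In a PA-tagged cDNA display construct, they were digested with trypsin and chymotrypsin and then sequenced. K50 was inferred by Bayesian fitting of counts, and unfolding free energy was derived per protease or combined against a sequence-predicted unfolded-state K50 and a shared folded-state K50.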

[2] = folding stability dG unfold from chymotrypsin proteolysis; higher = more stable
Outline: as §1

[3] = folding stability dG unfold from trypsin proteolysis; higher = more stable
Outline: as §1

Sequence	folding stability dG unfold [1]	folding stability dG unfold [2]	folding stability dG unfold [3]
SAGGSAGGLEIAKELGFEKIEIEEVKENRVVLKLKDKNGKEYKIEFEFDPETGEIKILKIEPLPSAGGSAGG [r6_526_TrMRF]	4.12 ± 0.13 kcal/mol	4.19 ± 0.1 kcal/mol	3.1 ± 0.21 kcal/mol
SAGGSAGGLKEALKLAEELGAKPHVVKTKGNSEIVFLELKDGRKIRLLVENGKIKEIIPIPETPSAGGSAGG [r6_548_TrMRF]	2.08 ± 0.17 kcal/mol	2.39 ± 0.065 kcal/mol	1.86 ± 0.065 kcal/mol
SAGGSAGGLKPGEEWLILFRIDIEIEPMPPNMSPDMAKRFPNMYHIEVKIDILIIPAEDLKELFSAGGSAGG [r6_831_TrROS]	3.51 ± 0.13 kcal/mol	3.74 ± 0.042 kcal/mol	3.17 ± 0.13 kcal/mol
SAGGSAGGMARVLRVEPAEGDDTFYVEVEFYDPATGEVTLGRFRIPADRPDLATNIPADSWVVLSAGGSAGG [r6_978_TrMRF]	1.25 ± 0.046 kcal/mol	1.56 ± 0.059 kcal/mol	0.66 ± 0.04 kcal/mol
SAGGSAGGMEIRIEKDENGFLRLKVINKKTKKETEIEIPVEDEDALKKLLDAGVERVEIEPLPPSAGGSAGG [r6_639_TrROS_Hall]	1.14 ± 0.21 kcal/mol	1.34 ± 0.08 kcal/mol	0.399 ± 0.13 kcal/mol
SAGGSAGGMEKYKVTITIERPDPNNPDVKTTEVTEVVLTPEEIEKLKKELAPTGYRVEITVIDESAGGSAGG [r6_857_JUSTAS]	2.45 ± 0.15 kcal/mol	2.51 ± 0.086 kcal/mol	2.6 ± 0.14 kcal/mol
SAGGSAGGMEVPPDQRVLVLDVEGTPEAIEAFAEELVRRGFDKPVAVVAVDPETGKVTIVVPEDSAGGSAGG [r6_652_TrMRF]	1.08 ± 0.11 kcal/mol	1.06 ± 0.1 kcal/mol	0.771 ± 0.05 kcal/mol
SAGGSAGGMFYVVRLEGPDGPLRTLVRPAESLEEARAFAEALAPEGARVTVEPLEEEEAERLLGSAGGSAGG [r6_267_TrMRF]	2.13 ± 0.065 kcal/mol	2.54 ± 0.053 kcal/mol	1.07 ± 0.057 kcal/mol
SAGGSAGGMHINAPGSIEELEEKLGGPIAEATLEGPGTFTLTLENGVPITVSFDDPEQLEELIESAGGSAGG [r6_13_TrMRF]	0.387 ± 0.18 kcal/mol	0.243 ± 0.16 kcal/mol	0.524 ± 0.059 kcal/mol
SAGGSAGGMIEVESFPEIGYILVKAKSEKPEEIAKEVLEKFNVKEAVVFEDPEKPYVYILAKIDSAGGSAGG [r6_661_TrMRF]	1.13 ± 0.21 kcal/mol	1.26 ± 0.21 kcal/mol	0.97 ± 0.088 kcal/mol
SAGGSAGGMILLETEEGEPKAVILFELRDPLFGGEIPLEFLEELAEEIKEKFPEIKHIELIGLPSAGGSAGG [r6_793_TrMRF]	1.31 ± 0.08 kcal/mol	1.1 ± 0.03 kcal/mol	1.47 ± 0.047 kcal/mol
SAGGSAGGMIPVKTTETTTLPDGSTVVTESLTIIDPTSNTSTTTTLKTTIINTSTGTTIPPSSLSAGGSAGG [r6_866_JUSTAS]	1 ± 0.079 kcal/mol	0.319 ± 0.073 kcal/mol	1.38 ± 0.032 kcal/mol
SAGGSAGGMIVLPPGATVDFDPSVARLTVTVKDPNSDKSTTTTYDVPPTATVTSAPGTIVVNVPSAGGSAGG [r6_804_JUSTAS]	0.171 ± 0.073 kcal/mol	0.476 ± 0.11 kcal/mol	-0.656 ± 0.14 kcal/mol
SAGGSAGGMKEGEEFEIELPDKYKVKIRVKDNIIEVEFPPGLRVRAEILENGEVKVYLPPELKPSAGGSAGG [r6_970_TrMRF]	1.7 ± 0.21 kcal/mol	1.42 ± 0.048 kcal/mol	2.04 ± 0.087 kcal/mol
SAGGSAGGMKIEPIAEDEDYIVVRVEPDLPELLEELGLEVVGVEEEGDYVIVVVKVPPEVREKFSAGGSAGG [r6_108_TrMRF]	0.336 ± 0.11 kcal/mol	-0.0352 ± 0.11 kcal/mol	0.649 ± 0.022 kcal/mol
SAGGSAGGMKIKVKFTITKSDPNSDSPVPRVITKEFESLEEAEKEFNKLKNLPSGYTVEVEIVESAGGSAGG [r7_0_JUSTAS]	3.62 ± 0.1 kcal/mol	3.82 ± 0.043 kcal/mol	3.16 ± 0.11 kcal/mol
SAGGSAGGMKTITIELPPGPVRIRVRLAATGEEVTVEVDAETPTVTITIPEEGAEIVEIEIEPVSAGGSAGG [r6_977_TrROS_Hall]	2.59 ± 0.18 kcal/mol	2.66 ± 0.13 kcal/mol	2.06 ± 0.065 kcal/mol
SAGGSAGGMKTTTYTFPGTLEEAKALAEELVAALPPHAKEVTVEVTPDPATGTVTVTITVKELASAGGSAGG [r6_164_JUSTAS]	3.46 ± 0.13 kcal/mol	3.63 ± 0.064 kcal/mol	3.17 ± 0.19 kcal/mol
SAGGSAGGMKTVTTPVYAVMPEEEAEALAKELEEKYPNVEIEVEREELPDGRVRVTITVTKPLGSAGGSAGG [r6_105_JUSTAS]	1.4 ± 0.067 kcal/mol	1.55 ± 0.054 kcal/mol	1.19 ± 0.022 kcal/mol
SAGGSAGGMKVEVVFLVPGEVFSKFTPPLSEDDPVLLVLVFDVPAPPPVPRYVYDPETGEWRPESAGGSAGG [r6_211_TrMRF]	3.22 ± 0.11 kcal/mol	3.72 ± 0.099 kcal/mol	2.39 ± 0.047 kcal/mol
SAGGSAGGMKVIEIDLPDGSKLKIVIYKDGTLPAYLPEGNKVIVLEIDKNGKIKSVKVFDAKDISAGGSAGG [r6_81_TrMRF]	3.21 ± 0.25 kcal/mol	3.52 ± 0.072 kcal/mol	2.87 ± 0.16 kcal/mol
SAGGSAGGMKVKIKLGPGEEVEIEVVEDKETNKLYFKIVNKKTKKVYVFETLEEAKNMSLEELLSAGGSAGG [r6_739_TrROS_Hall]	3.22 ± 0.12 kcal/mol	3.73 ± 0.07 kcal/mol	1.78 ± 0.065 kcal/mol
SAGGSAGGMKVLATTEDGEVYLFDLSEFDLSFEEWLNLGEEELAELLRKAFPEKEITLELVEEPSAGGSAGG [r6_164_TrMRF]	3.02 ± 0.077 kcal/mol	3.3 ± 0.047 kcal/mol	2.5 ± 0.076 kcal/mol
SAGGSAGGMKVRVKIEVEGKTLEIEIEVPEEKREEALEKAKKLAEKLAEELDVEVKIVEVEEEPSAGGSAGG [r6_459_TrROS_Hall]	2.01 ± 0.12 kcal/mol	2.41 ± 0.073 kcal/mol	1.04 ± 0.034 kcal/mol
SAGGSAGGMKVYEIEVPPSSGLTPEEIRARVREEIEASNNAPVEVTVEVDPNGRLTVTIKITPLSAGGSAGG [r6_819_JUSTAS]	1.49 ± 0.13 kcal/mol	1.28 ± 0.054 kcal/mol	1.83 ± 0.036 kcal/mol
SAGGSAGGMKYLDVVLHPDTGATYSSLEEIKASSSGPFQIKTGDGKWIYLPVEELSSLPTPLASSAGGSAGG [r6_685_JUSTAS]	0.247 ± 0.065 kcal/mol	0.331 ± 0.048 kcal/mol	0.0571 ± 0.039 kcal/mol
SAGGSAGGMLLSSEEELEEELKRVREEGIGEVEVQVVDEKGNIHTLPTFVENPGPEPLPNEKLLSAGGSAGG [r6_258_JUSTAS]	0.628 ± 0.13 kcal/mol	0.643 ± 0.049 kcal/mol	0.558 ± 0.066 kcal/mol
